Test results as given in paper PMC5767185, “Arabidopsis G-Protein β Subunit AGB1 Interacts with BES1 to Regulate Brassinosteroid Signaling and Cell Elongation” (Frontiers in Plant Science, 2017).

Target: T1, His-AGB1 (Arabidopsis, UniProt P49177 1-377)
T1 construct: AGB1 of Arabidopsis, full length, cloned into pCOLD-TF; as the empty pCOLD-TF vector gives His-TF, the fusion probably carries trigger factor between the His tag and AGB1 (surmised); also called His-tagged AGB1; source: E. coli (Rosetta), pCOLD-TF, purified; not shown: His, N-terminal, kept
T1 sequence (looked up): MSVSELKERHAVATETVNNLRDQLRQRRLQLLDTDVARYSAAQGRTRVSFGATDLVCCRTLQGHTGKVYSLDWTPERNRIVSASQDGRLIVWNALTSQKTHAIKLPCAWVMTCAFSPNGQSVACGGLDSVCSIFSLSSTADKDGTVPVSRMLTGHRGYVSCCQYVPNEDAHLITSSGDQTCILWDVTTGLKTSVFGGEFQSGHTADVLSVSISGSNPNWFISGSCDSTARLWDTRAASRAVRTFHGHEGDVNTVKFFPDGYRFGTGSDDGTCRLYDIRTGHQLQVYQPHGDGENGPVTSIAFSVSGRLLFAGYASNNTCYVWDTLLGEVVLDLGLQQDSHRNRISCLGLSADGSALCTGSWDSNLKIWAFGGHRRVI
Assay: pull-down; GST-BES1 held on glutathione beads (MagneGST), His-AGB1 or His-TF added, lysis buffer without EDTA, 2 h at 4°C; prey detected with anti-His antibody
Conditions: both partners purified

binding result: binds
B1: GST-BES1 (natural protein, Arabidopsis, UniProt Q9LN63 1-335, looked up)
chain: MTSDGATSTSAAAAAAAMATRRKPSWRERENNRRRERRRRAVAAKIYTGLRAQGNYNLPKHCDNNEVLKALCSEAGWVVEEDGTTYRKGHKPLPGDMAGSSSRATPYSSHNQSPLSSTFDSPILSYQVSPSSSSFPSPSRVGDPHNISTIFPFLRNGGIPSSLPPLRISNSAPVTPPVSSPTSRNPKPLPTWESFTKQSMSMAAKQSMTSLNYPFYAVSAPASPTHHRQFHAPATIPECDESDSSTVDSGHWISFQKFAQQQPFSASMVPTSPTFNLVKPAPQQLSPNTAAIQEIGQSSEFKFENSQVKPWEGERIHDVAMEDLELTLGNGKAHS
notes: BES1 of Arabidopsis, full length, cloned into pGEX-4T-1; also called GST-tagged BES1; source: E. coli (Rosetta), pGEX-4T-1, purified; not shown: GST, N-terminal, kept
